What all share (format): in vitro ADME
Data set [1] can be described thus: Metabolic stability in hepatocytes, Cynomolgus macaques. The settings on record: cynomolgus macaque, hepatocytes (cryopreserved, suspension), 0.5×10^6 cells/mL. The method, then:
(§1) Test Example 7: Metabolic Stability of the Compounds of the Present Invention in Hepatocytes from Mice, Rats, Cynomolgus Macaques, and Humans
(§2) To investigate the metabolic stability of the compounds of the present invention in hepatocytes from mice, rats, Cynomolgus macaques, and humans.
(§3) Incubations were performed in 96-well plates using an external extraction method. Several 96-well sample precipitation plates, designated T0, T15, T30, T60, T90, TO-MC, T90-MC, and blank matrix, were prepared, respectively. The recovery culture medium and incubation culture medium were removed in advance and placed in a 37° C. water bath for preheating. […]
(§4) At the end of the incubation at the corresponding time point, the incubation plates were removed, from which 25 μL of a compound mixture with the cells and a control compound mixture with the cells were removed and added to sample plates containing 125 μL of stop buffer, respectively. […] All samples were mixed uniformly and then analyzed by the LC-MS/MS method.
(§5) The concentration of the compound to be tested and the concentration of the control in the sample were semi-quantitatively determined by the liquid chromatography-tandem mass spectrometry (LC-MS/MS) method without a standard curve and quality control sample. […]

Data set [2] can be described thus: Metabolic stability in hepatocytes, SD rats. The settings on record: Sprague-Dawley (SD), rat, hepatocytes (cryopreserved, suspension), 0.5×10^6 cells/mL. On the procedure: as §1, §2, §3, §4, §5
A short description of data set [3]: Stability in plasma, Cynomolgus macaques. As to conditions: cynomolgus macaque, 37° C. The method, then: Test Example 9: Stability Analysis of the Compounds of the Present Invention in Plasma from Different Species
To test the stability of the compounds of the present invention in plasma from SD rats, Cynomolgus macaques, and humans.
The corresponding incubation plates, including T0, T10, T30, T60, T120, and T240 incubation plates, were added with a 2 μL working solution of the compound to be tested (100 μM). Three parallel wells were prepared for each sample. Then, 98 μL of blank plasma from SD rats, Cynomolgus macaques, and humans was added to the corresponding incubation plates to which the working solution had been added. All samples were incubated in a 37° C. water bath. […] At the end of each incubation time point, the corresponding incubation plate was removed, added with stop buffer, precipitated, and centrifuged for 20 minutes. Then, 150 μL of the supernatant was analyzed by the LC-MS/MS method. The concentration of the compound to be tested in the sample was semi-quantitatively determined by the liquid chromatography-tandem mass spectrometry (LC-MS/MS) method.

Data set [4] is described as follows: Metabolic stability in hepatocytes, CD-1 mice. The settings on record: mouse, hepatocytes (cryopreserved, suspension), CD-1 mice hepatocytes, 0.5×10^6 cells/mL. On the procedure:
as §1, §2, §3, §4, §5

Structures can show the parent of a compound that is named as a salt. Starred links: 1 amine or outer side, 2 acyl side, 3 side chain; linkers in the order of their positions; H or OH if unused. Positions of bridges follow the written chain, without caps; N, C: chain ends. Non-standard residues stand in square brackets, D forms with d. Residues, ends and D or L forms follow the SMILES beside them. Chains are numbered I, II in the order given. *: point of attachment. TATA = O=C(CC[*:1])N1CN(C(=O)CC[*:2])CN(C(=O)CC[*:3])C1; Dolaproine = CO[C@@H]([C@@H]1CCCN1)[C@@H](C)C(=O)O; Dil = CC[C@H](C)[C@H](NC)[C@@H](CC(=O)O)OC; 1Nal = N[C@@H](Cc1cccc2ccccc12)C(=O)O; X2 = O=C(CCCC(=O)[*:2])NCCC(=O)[*:1]; PABC = O=C(OCc1ccc(N[*:1])cc1)[*:2]; X1 = C[C@@H](N*)[C@@H](O)c1ccccc1; Hyp = O=C(O)[C@@H]1C[C@@H](O)CN1; hArg = N=C(N)NCCCC[C@H](N)C(=O)O; Cit = NC(=O)NCCC[C@H](N)C(=O)O; Pen = CC(C)(S)[C@H](N)C(=O)O; NMeV = CN[C@H](C(=O)O)C(C)C; Sar = CNCC(=O)O

The term half-life denotes the time in which the quantity being followed falls by half. A higher half-life goes with slow loss. In the case of `CC[C@H](C)[C@@H]([C@@H](CC(=O)N1CCC[C@H]1[C@H](OC)[C@@H](C)C(=O)N[C@H](C)[C@@H](O)c1ccccc1)OC)N(C)C(=O)[C@@H](NC(=O)[C@H](C(C)C)N(C)C(=O)OCc1ccc(NC(=O)[C@H](CCCNC(N)=O)NC(=O)[C@@H](NC(=O)CCCC(=O)NCCC(=O)N(C)CC(=O)N(C)CC(=O)N(C)CC(=O)N(C)CC(=O)N(C)CC(=O)N(C)CC(=O)N(C)CC(=O)N(C)CC(=O)N(C)CC(=O)N(C)CC(=O)N[C@H]2CCCCNC(=O)C[C@@H](C(=O)N[C@H]3CSCCC(=O)N4CN5CN(C4)C(=O)CCSC(C)(C)[C@H](NC(=O)[C@@H](CC(=O)O)NC(=O)[C@H](Cc4cccc6ccccc46)NC(=O)[C@@H]4CCCN4C3=O)C(=O)N[C@@H](CCSC)C(=O)N[C@@H](CCCCNC(=N)N)C(=O)N[C@@H](CC(=O)O)C(=O)N[C@@H](Cc3c[nH]c4ccccc34)C(=O)N[C@@H](CO)C(=O)N[C@@H]([C@@H](C)O)C(=O)N3CCC[C@H]3C(=O)N3C[C@H](O)C[C@H]3C(=O)N[C@@H](Cc3c[nH]c4ccccc34)C(=O)N[C@H](C(N)=O)CSCCC5=O)NC(=O)CN(C)C2=O)C(C)C)cc1)C(C)C` [Acetate salt of PDC_2] (I: [Sar][Sar][Sar][Sar][Sar][Sar][Sar][Sar][Sar][Sar]K[Sar]DCP[1Nal][dD][Pen]M[hArg]DWSTP[Hyp]WC-NH2 / II: V[Cit][PABC][NMeV]V[Dil][Dolaproine]-X1; lactam I:11-I:13; linker I:14-I:18-I:28 via TATA; linker I:N-II:N via X2), the half-life at 1 μM in data set [1], in data set [2] and in data set [4] was greater than 3.61 h throughout. In addition, the CLint scaled at 1 μM in data set [1] (read-out: CLint (liver)) was less than 23 mL/min/kg; in data set [2] (read-out: CLint (liver)) it was less than 29.9 mL/min/kg; in data set [4] (read-out: CLint (liver)), less than 75.9 mL/min/kg. Moreover, the half-life at 2 μM in data set [3] is greater than 9.63 h.

(Values after patent US12539335B2, “Tricyclic polypeptide conjugated drug and use thereof” (CONJUSTAR (ZHUHAI) BIOLOGICS CO., LTD., priority 2021, dated 2026).)
